From publication PMC2859980

Experiments:
[1] = T cell IFN-γ ELISA after acid stripping and re-expression; conditions: glycan gained; control: same cells without z-vad-fmk
[2] = cytosolic fraction SDS-PAGE, anti-flag immunoblot; conditions: glycan gained; control: untreated (cycloheximide only)

B1: tyrosinase: z-vad-fmk, R402Q tyrosinase cells (protein)
parent chain: MLLAVLYCLLWSFQTSAGHFPRACVSSKNLMEKECCPPWSGDRSPCGQLSGRGSCQNILLSNAPLGPQFPFTGVDDRESWPSVFYNRTCQCSGNFMGFNCGNCKFGFWGPNCTERRLLVRRNIFDLSAPEKDKFFAYLTLAKHTISSDYVIPIGTYGQMKNGSTPMFNDINIYDLFVWMHYYVSMDALLGGSEIWRDIDFAHEAPAFLPWHRLFLLRWEQEIQKLTGDENFTIPYWDWRDAEKCDICTDEYMGGQHPTNPNLLSPASFFSSWQIVCSRLEEYNSHQSLCNGTPEGPLRRNPGNHDKSRTPRLPSSADVEFCLSLTQYESGSMDKAANFSFRNTLEGFASPLTGIADASQSSMHNALHIYMNGTMSQVQGSANDPIFLLHHAFVDSIFEQWLQRHRPLQEVYPEANAPIGHNRESYMVPFIPLYRNGDFFISSKDLGYDYSYLQDSDPDSFQDYIKSYLEQASRIWSWLLGAAMVGAVLTALLAGLVSLLCRHKRKQLPEEKQPLLMEKEDYHSLYQSHL
[1]
  other: MHC class I epitope presentation: decreases

B2: tyrosinase: z-vad-fmk, N371D R402Q tyrosinase cells (protein)
parent chain: MLLAVLYCLLWSFQTSAGHFPRACVSSKNLMEKECCPPWSGDRSPCGQLSGRGSCQNILLSNAPLGPQFPFTGVDDRESWPSVFYNRTCQCSGNFMGFNCGNCKFGFWGPNCTERRLLVRRNIFDLSAPEKDKFFAYLTLAKHTISSDYVIPIGTYGQMKNGSTPMFNDINIYDLFVWMHYYVSMDALLGGSEIWRDIDFAHEAPAFLPWHRLFLLRWEQEIQKLTGDENFTIPYWDWRDAEKCDICTDEYMGGQHPTNPNLLSPASFFSSWQIVCSRLEEYNSHQSLCNGTPEGPLRRNPGNHDKSRTPRLPSSADVEFCLSLTQYESGSMDKAANFSFRNTLEGFASPLTGIADASQSSMHNALHIYMDGTMSQVQGSANDPIFLLHHAFVDSIFEQWLQRHRPLQEVYPEANAPIGHNRESYMVPFIPLYRNGDFFISSKDLGYDYSYLQDSDPDSFQDYIKSYLEQASRIWSWLLGAAMVGAVLTALLAGLVSLLCRHKRKQLPEEKQPLLMEKEDYHSLYQSHL
[1]
  other: MHC class I epitope presentation: no change

B3: tyrosinase: z-vad-fmk (protein)
parent chain: MLLAVLYCLLWSFQTSAGHFPRACVSSKNLMEKECCPPWSGDRSPCGQLSGRGSCQNILLSNAPLGPQFPFTGVDDRESWPSVFYNRTCQCSGNFMGFNCGNCKFGFWGPNCTERRLLVRRNIFDLSAPEKDKFFAYLTLAKHTISSDYVIPIGTYGQMKNGSTPMFNDINIYDLFVWMHYYVSMDALLGGSEIWRDIDFAHEAPAFLPWHRLFLLRWEQEIQKLTGDENFTIPYWDWRDAEKCDICTDEYMGGQHPTNPNLLSPASFFSSWQIVCSRLEEYNSHQSLCNGTPEGPLRRNPGNHDKSRTPRLPSSADVEFCLSLTQYESGSMDKAANFSFRNTLEGFASPLTGIADASQSSMHNALHIYMNGTMSQVQGSANDPIFLLHHAFVDSIFEQWLRRHRPLQEVYPEANAPIGHNRESYMVPFIPLYRNGDFFISSKDLGYDYSYLQDSDPDSFQDYIKSYLEQASRIWSWLLGAAMVGAVLTALLAGLVSLLCRHKRKQLPEEKQPLLMEKEDYHSLYQSHL
[2]
  degradation_or_half_life: no change
